Laboratory results published in patent EP4713368A1 (dated 2026).

Key:
human CD28 [1] = molecular target: T1, human CD28 (human, UniProt P10747 19-152, limits assumed); test: selection from yeast-presented synthetic human antibody libraries
T1 construct: also called Cluster of Differentiation 28; Tp44

human CD28 [2] = molecular target: T1, human CD28; test: affinity maturation of CD28-binding antibodies (Example 10: Discovery of Additional Antibodies that Bind to CD28)

| binding result (human CD28 [1]) | binding result (human CD28 [2]) | Binder |
| --- | --- | --- |
| binds |  | Ab No. 46 (antibody, V domains shown, IgG format) VH: QVQLVQSGAEVKKPGSSVKVSCKASGGTFSSYAISWVRQAPGQGLEWMGGIIPISGTTNYAQKFQGRVTITADESTSTAYMELSSLRSEDTAVYYCARHSSSWGTAITSDYWGQGTLVTVSS VL: QSVLTQPPSVSGAPGQRVTISCTGSGSNIGAGYDVHWYQQLPGTAPKLLIYGNTNRPSGVPDRFSGSKSGTSASLAITGLQAEDEADYYCQSNDNSLRGILFGGGTKLTVL |
| binds |  | Ab No. 28 (antibody, V domains shown, IgG format) VH: EVQLLESGGGLVQPGGSLRLSCAASGFTFSSYAMSWVRQAPGKGLEWVSAISGSGGSTYYADSVKGRFTISRDNSKNTLYLQMNSLRAEDTAVYYCVRGYRLVGILTGSHFDYWGQGTLVTVSS VL: DIQMTQSPSTLSASVGDRVTITCRASQSIGSWLAWYQQKPGKAPKLLIYKASSLESGVPSRFSGSGSGTEFTLTISSLQPDDFATYYCQQYNILPPTFGGGTKVEIK |
| binds |  | Ab No. 8 (antibody, V domains shown, IgG format) VH: QVQLVQSGAEVKKPGSSVKVSCKASGGTFSSYAISWVRQAPGQGLEWMGGIIPISGTANYAQKFQGRVTITADESTSTAYMELSSLRSEDTAVYYCAKTRTVAYPGSDWGQGTLVTVSS VL: not shown |
| binds |  | Ab No. 57 (antibody, V domains shown, IgG format) VH: QVQLQESGPGLVKPSETLSLTCTVSGGSISSYYWSWIRQPPGKGLEWIGSIYYSGSTNYNPSLKSRVTISVDTSKNQFSLKLSSVTAADTAVYYCARTEVGATRPREDFQHWGQGTLVTVSS VL: QSVLTQPPSVSAAPGQKVTISCSGSSSNIGNNYVSWYQQLPGTAPKLLIYDNNKRPSGIPDRFSGSKSGTSATLGITGLQTGDEADYYCGTWDISLGWVFGGGTKLTVL |
| binds |  | Ab No. 6 (antibody, V domains shown, IgG format) VH: QVQLVQSGAEVKKPGSSVKVSCKASGGTFSSYAISWVRQAPGQGLEWMGGIIPISGTANYAQKFQGRVTITADESTSTAYMELSSLRSEDTAVYYCAKGGFGAPLPTWGQGTLVTVSS VL: DIQMTQSPSSVSASVGDRVTITCRASQGISSWLAWYQQKPGKAPKLLIYAASSLQSGVPSRFSGSGSGTDFTLTISSLQPEDFATYYCQQGISHPFTFGGGTKVEIK |
| binds |  | Ab No. 7 (antibody, V domains shown, IgG format) VH: QVQLVQSGAEVKKPGSSVKVSCKASGGTFSSYAISWVRQAPGQGLEWMGGIIPISGTANYAQKFQGRVTITADESTSTAYMELSSLRSEDTAVYYCAKGGFGAPLPTWGQGTLVTVSS VL: DIQMTQSPSSLSASVGDRVTITCRASQSISSYLNWYQQKPGKAPKLLIYSASSLQSGVPSRFSGSGSGTDFTLTISSLQPEDFATYYCQQGSSVPFTFGGGTKVEIK |
| binds |  | Ab No. 5 (antibody, V domains shown, IgG format) VH: QVQLVQSGAEVKKPGSSVKVSCKASGGTFSSYAISWVRQAPGQGLEWMGGIIPISGTANYAQKFQGRVTITADESTSTAYMELSSLRSEDTAVYYCAKGGFGAPLPTWGQGTLVTVSS VL: DIQLTQSPSSVSASVGDRVTITCRASQDISSWLAWYQQKPGKAPKLLIYAASSLQSGVPSRFSGSGSGTDFTLTISSLQPEDFATYYCQQGNAHPFTFGGGTKVEIK |
| binds |  | Ab No. 3 (antibody, V domains shown, IgG format) VH: QVQLVQSGAEVKKPGSSVKVSCKASGGTFSSYAISWVRQAPGQGLEWMGGIIPISGTANYAQKFQGRVTITADESTSTAYMELSSLRSEDTAVYYCAKALAPGIPQWGQGTLVTVSS VL: DIQMTQSPSSLSASVGDRVTITCRASQSISSYLNWYQQKPGKAPKLLIYAASSLQSGVPSRFSGSGSGTDFTLTISSLQPEDFATYYCQQAYDDPTFGGGTKVEIK |
| binds |  | Ab No. 4 (antibody, V domains shown, IgG format) VH: QVQLVQSGAEVKKPGSSVKVSCKASGGTFSSYAISWVRQAPGQGLEWMGGIIPISGTANYAQKFQGRVTITADESTSTAYMELSSLRSEDTAVYYCAKALAPGIPQWGQGTLVTVSS VL: DIQMTQSPSSLSASVGDRVTITCRASQSISRYLNWYQQKPGKAPKLLIYGASSLQSGVPSRFSGSGSGTDFTLTISSLQPEDFATYYCQQAFSSPITFGGGTKVEIK |
| binds |  | Ab No. 9 (antibody, V domains shown, IgG format) VH: QVQLVQSGAEVKKPGSSVKVSCKASGGTFSSYAISWVRQAPGQGLEWMGGIIPISGTANYAQKFQGRVTITADESTSTAYMELSSLRSEDTAVYYCALGRWLTEAQWGQGTLVTVSS VL: not shown |
|  | binds | Ab No. 21a (antibody, V domains shown, derived from Ab No. 21 by modifying VH CDRs, VL unchanged; IgG format) VH: QVQLVQSGAEVKKPGSSVKVSCKASGGTFNAYAISWVRQAPGQGLEWMGGIIPISGTAAYAQKFQGRVTITADESTSTAYMELSSLRSEDTAVYYCTRDLGFGAIRDTWGQGTLVTVSS VL: EIVLTQSPATLSLSPGERATLSCRASQSVSSYLAWFQQKPGQAPRLLIYDASNRATGIPARFSGSGSGTDFTLTISSLEPEDFAVYYCQQSLNLPITFGGGTKVEIK |
|  | binds | Ab No. 21d (antibody, V domains shown, derived from Ab No. 21 by modifying VH CDRs, VL unchanged; IgG format) VH: QVQLVQSGAEVKKPGSSVKVSCKASGGTFSTYAISWVRQAPGQGLEWMGGIIPISGTANYAQKFQGRVTITADESTSTAYMELSSLRSEDTAVYYCTRDLGFGAIRDTWGQGTLVTVSS VL: EIVLTQSPATLSLSPGERATLSCRASQSVSSYLAWFQQKPGQAPRLLIYDASNRATGIPARFSGSGSGTDFTLTISSLEPEDFAVYYCQQSLNLPITFGGGTKVEIK |
|  | binds | Ab No. 21b (antibody, V domains shown, derived from Ab No. 21 by modifying VH CDRs, VL unchanged; IgG format) VH: QVQLVQSGAEVKKPGSSVKVSCKASGGTFNAYAISWVRQAPGQGLEWMGGIIPISGTANYAQKFQGRVTITADESTSTAYMELSSLRSEDTAVYYCTRDLGFGAIRDTWGQGTLVTVSS VL: EIVLTQSPATLSLSPGERATLSCRASQSVSSYLAWFQQKPGQAPRLLIYDASNRATGIPARFSGSGSGTDFTLTISSLEPEDFAVYYCQQSLNLPITFGGGTKVEIK |
|  | binds | Ab No. 21e (antibody, V domains shown, derived from Ab No. 21 by modifying VH CDRs, VL unchanged; IgG format) VH: QVQLVQSGAEVKKPGSSVKVSCKASGGTFDNYAISWVRQAPGQGLEWMGGIIPISGTAIYAQKFQGRVTITADESTSTAYMELSSLRSEDTAVYYCTRDLGFGAIRDTWGQGTLVTVSS VL: EIVLTQSPATLSLSPGERATLSCRASQSVSSYLAWFQQKPGQAPRLLIYDASNRATGIPARFSGSGSGTDFTLTISSLEPEDFAVYYCQQSLNLPITFGGGTKVEIK |
|  | binds | Ab No. 21c (antibody, V domains shown, derived from Ab No. 21 by modifying VH CDRs, VL unchanged; IgG format) VH: QVQLVQSGAEVKKPGSSVKVSCKASGGTFSGYAISWVRQAPGQGLEWMGGIIPISATANYAQKFQGRVTITADESTSTAYMELSSLRSEDTAVYYCTRDLGFGAIRDTWGQGTLVTVSS VL: EIVLTQSPATLSLSPGERATLSCRASQSVSSYLAWFQQKPGQAPRLLIYDASNRATGIPARFSGSGSGTDFTLTISSLEPEDFAVYYCQQSLNLPITFGGGTKVEIK |
|  | binds | Ab No. 21f (antibody, V domains shown, derived from Ab No. 21 by modifying VH CDRs, VL unchanged; IgG format) VH: QVQLVQSGAEVKKPGSSVKVSCKASGGTFGGYAISWVRQAPGQGLEWMGGIIPISATAFYAQKFQGRVTITADESTSTAYMELSSLRSEDTAVYYCTRDLGFGAIRDTWGQGTLVTVSS VL: EIVLTQSPATLSLSPGERATLSCRASQSVSSYLAWFQQKPGQAPRLLIYDASNRATGIPARFSGSGSGTDFTLTISSLEPEDFAVYYCQQSLNLPITFGGGTKVEIK |
